Laboratory results published in article PMC4063869, “Structure of CbpA J-Domain Bound to the Regulatory Protein CbpM Explains Its Specificity and Suggests Evolutionary Link between CbpM and Transcriptional Regulators” (PLoS ONE, 2014).

Assays:
[1] = molecular target: Klebsiella pneumoniae CbpM (residues 2-101) (Klebsiella pneumoniae (strain ATCC 700721/MGH 78578)); assay: crystal structure; K. pneumoniae CbpM with E. coli CbpA^Jdom, complex separated from excess CbpA^Jdom on Superdex 75; hanging drop, 0.1 M HEPES pH 7, 20% (w/v) PEG 8K; 1.87 Å
[2] = molecular target: the molecule itself; assay: as above
[3] = molecular target: T1, CbpM (residues 2-101), species not named for the experiment ( (E. coli K-12 or K. …, UniProt P63264 2-101)); assay: SPR; CbpM immobilised, DnaJ^Jdom variants injected (50 µL/min, 120 s); ProteOn XPR36, 25°C, 50 mM sodium phosphate pH 7.4, 100 mM NaCl, 1 mM DTT, 0.005% Tween 20; steady-state equilibrium fit (one site); conditions: both partners purified
T1 construct: CbpM residues 2-101; the immobilisation is told there; also called immobilized CbpM; source: E. coli Rosetta pLysS, purified (Ni-NTA, tag cleaved, amylose resin, size exclusion); not shown: His-MBP, N-terminal, cleaved
T1 sequence: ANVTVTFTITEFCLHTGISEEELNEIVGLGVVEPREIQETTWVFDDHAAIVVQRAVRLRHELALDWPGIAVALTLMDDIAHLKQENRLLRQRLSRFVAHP

Molecule: J-domain of E. coli CbpA (CbpA^Jdom) (domain or fragment)
- stoichiometry N (binder:target chains (printed 2:2)) [1]: 1

B1: Klebsiella pneumoniae CbpM (residues 2-101) (natural protein, UniProt A0A378AXB4 2-101, looked up)
chain: ATVTVTFTITELCLRTGVSEEELTEIVGLGMIEPHQPQADTWLFDDSAVTIVHRAVRLRNELELDWPGIAVALTLLDENARLTRENRLLQQRLARFLAHG
notes: CbpM of Klebsiella pneumoniae (strain ATCC 700721/MGH 78578), residues 2-101, amplified from genomic DNA; Forms a parallel coiled-coil dimer in the crystal; each CbpA J-domain touches both subunits; also called K. pneumoniae CbpM; Klebsiella CbpM; source: E. coli Rosetta pLysS, purified (Ni-NTA, tag cleaved, amylose resin, size exclusion); not shown: His-MBP, N-terminal, cleaved
- stoichiometry N [2]: 2

B2: Chimeric DnaJ^Jdom(25-47): DnaJ J-domain with the central region Y25-F47 replaced by that of CbpA^Jdom (domain or fragment, E. coli, UniProt P08622 2-79, looked up)
chain: AKQDYYEILGVSKTAEEREIRKAYRRLARKYHPDVSKEPDAEARFKEIKEAYEVLTDSQKRAAYDQYGHAAFEQGGM
notes: DnaJ of E. coli, J-domain, residues 2-79, with residues 25-47 replaced by residues 25-46 of E. coli CbpA; also called chimera DnaJ^Jdom (25-47); source: E. coli Rosetta pLysS, purified (glutathione sepharose, tag cleaved, size exclusion); not shown: GST, N-terminal, cleaved
- Kd [3]: 26 µM
